Assay results published in the nanobody polyreactivity screen of Harvey et al. (2022).

Experiment: yeast display, Sf9 membrane polyspecificity reagent, FACS + sequencing; frameworks hold sequencing errors
In short: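 Polyreactivity labels are assigned by the sorting gate from which each nanobody was recovered. The gates were low and high (top ~1%), set on anti-HA fluorescence for expression and streptavidin fluorescence for reagent binding. Before sorting, galactose-induced (36–48 hours) yeast display cells were stained for 1 hour at 4 °C with 10% biotinylated, detergent-solubilized Sf9 membrane reagent.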

| Sequence | polyreactivity (PSR sort gate) |
| --- | --- |
| QVQLVESGGGLVQAGGSLRLSCAASGSTFTINFMGWYRQAPGKERELVAAINGGGRTNYADSVKGRFTISRDNAKNTVYLQMNSLNPEDTAVYYCAAEWRRYEYSDSWEYDYWGQGTQVTVSS | low polyreactivity |
| QVQLVESGGGLVQAGGSLRLSCDASGFTIYHYAIGCYRQATGKERELVDANSRSGGSTYYADSVKGRFTISRDNAQNTFYLQMNSLKPEDTAVYYCAKVLRAKNSFDYWGQGTQVTVSS | high polyreactivity |
| QVQLEESGGGLVQAGGSLRLSCAASGSIFRWNAMGWSRQAPGKERELVAAISSGTSTNYADSVKGRFTISRDNAKNTVYVQMNSQKPEDTAVYYCAARGRKNQRRYGYWGQGTQVTVSS | low polyreactivity |
| QVQLVESGGGLVQAGGSLLLSCAASGRTFNYIAMGWYRQAPGKERELVAAISQGGGSTYYADSVKGRFTISRDNAKNTVYLQMNSLKPEVTAVSYFAADTWWYGKYDYWGQGTQVTVSS | low polyreactivity |
| QVQLVESGGGLVQAGGSLRLSCAASGLTFYGNAMGWYRQAPGKERELVAAITSNGGSTYYADSVKGRFTISRDNAKNTVYLQMISLKPEDTAVYYCNVDTGYDYWYPGYGYWGQGTQVTVSS | low polyreactivity |
| QVQLVESGGGLVQAVGSLRLSCAASGRTFYGYALGWYRQQPGKVSELVAAISADTGRTRYADSVKGRFTISRDNAKNTVYLQMICLNPEDTAVYYCATRLFPQSRYYYWGQGTQVTVSS | high polyreactivity |
| QVQLVESGGGLVQAGGSLRLSCAASGFTFGVYAMGWYRQAPGKERELVAAITRSGGSTYYADSVKGRFTISRDNAKNTVYLQMNSLKPEDTAVYYCASRARDHYGYWGQGTQVTVSS | high polyreactivity |
| QGQHVESGGGLVQAGGSLRLSCAASGLTFWVYAMGWYRQPRGKERELVAVITNGGRTNYADSVKGRFTISRDNAKNTVYLLMNSLKPEDSAVYYCARPNLLSGDYWGQGTQVTVSS | high polyreactivity |
| QVQLVESGGGLVQAGGSLRLSCAASGSTFTLYAMGWYRQAPGKERELVAAISGIGDSTYYADSVKGRFTISRDNAKNTVYFQMNSLKPEDTAVYYCAADGEYRYVWEYESWGQGTQVTVSS | low polyreactivity |
| QVQLVESGGGLVQAGGSLRLSCAASGNIFDGYAMGWYRQAPGKERELVAAISLSGGSTNYADSVKGRFTISRDNAKNTVYLQMNSLKPEDTAVYYCNARNWYYEGDYWGQGTQVTVSS | high polyreactivity |
| QVQLVESGGGLVQAGGSLRLSCAASGRIFYYYTMGWYRQAPGKERELVAGISRSGDRTYYADSVKGRFTISRDNGKNTVYLQMNSLKPEDTAVYYFAALYGYVHRKAFYYWGQGTQVTVSS | high polyreactivity |
| QVQLQESGGGLVQAGGSLRLSCAASGYIYSWYPMGWYLQAPGKEREFVATIAPGATTYYADSVKGRFTISRDYAKNTVYLQMNSLKTEDTAVYYCAAGAENNDFYSYWGHGTQVTVSS | low polyreactivity |
| QVQLVESGGGLDQAGGSLRLSCAASGSTLGYNVMGWYRQAPGKERELVAAISGDGSTNYADSVKGRFTISRDNAKNTVYLQMNSLKPEDTAVYYCAARPGWFAGYEYWGQGTQVTVSS | low polyreactivity |
| QVQLVESGGVLVQAGGSLRLSCAASGSIFTYYAMGWYRQAPGKEREFVAAISRSGGSTYYADSVKGRFTISRDNANNTVYLQMNSLKPEDTAVYYCNAYSYSDAGDDGDYWGQGTQVTVSS | low polyreactivity |
| QVQLVESGGGLVQAGGSLRLSCAASGSTFAFNAMGWYRQAPGKEREFVARITWSDGSTYYADSVKGRFTISRDNAKNSVYLQMNSLKPEDTAVYYCARDPTEQAIARWTYDYWGQGTQVTVSS | low polyreactivity |
| HVQLVESGGGLVQAGGSLRLSCAASGSTFYRNAMGWYREAPGKEWEFVADITLGGGSTYYADSVKGRFTISRDNAKNTVYLQMNSLKPEDTAVYYCAVDYWQLNYDYWGQGTQVTVSS | low polyreactivity |
| QVQLVESGGGLVQAGGSLRLSCAASGSTFSLYDMGWYRQAPGKERELVAAIRWSGDSTYYADSVKGRFTISRDNAKNTVYLQMNSLKPEDTAVYYCAKDQSSPWDIQFLVYGGYEYWGQGTQVTVSS | low polyreactivity |
| QVQLVESGGGLVQAGGSLRLSCSASGRTFRSYTMGWYRQAPGKERELVAAINRGDRTYADSVKGRFTISRDNAKNTVYLQMNSLKPEDTAVYYCNARYYTHRYDYWGQGTQVTVSS | high polyreactivity |
| QVQLVESGGGLVQAGGSLRLSCAASGLIFYVYAMGWYRQAPGKERELVADISTAGGITNYADSVKGRFTISRDNAKNTVYLQMNSLKPEDTAVYYCAATQPWYNTRTRYGSWGQGTQVTVSS | low polyreactivity |
| QVQLVESGGGLVQAGGSLRLSCSASGLIFSSYAMGWYRPAPGKERELVAAISRGGSTNYADSVKGRFTISRDNAKNTVYLQMNSLKPEDTAVYYCNDYSWVNRYDYWGQGTQVTVSA | high polyreactivity |
| QVQLVESGGGLVQAGGSLRLSCAATARIFVRYAMGWYRQAPGKERELVAAISTSGGRTYYADSVKGRFTISRDNAKNTVYLQMNSLKPEDTAVYYCNARIKRPRGVYGGDYWGQGTQVTVSS | high polyreactivity |
| QVQLVESGGGLVQAGGSLRLSCAASGYTFRYYAMGWYRQAPGKERELVAAISSSGGNTYYADSVKGRFTISRDNAKNTVYLQMNSLIPEDTAVYYCAARRYQYPGHSLGYYYTDYYWGQGTQVTVSS | low polyreactivity |

| Sequence | polyreactivity (PSR sort gate) |
| --- | --- |
| QVQLVESGGGLVQAGGSLRLSCAASGIIFLKYAMGWYRQAPGKERELVAGISVRGGRTYYADSVKGRFTISRDNAKNTVYLQMNSLKPEDTAVYYCAKERSRYYPYDYWGQGTQVTVSS | high polyreactivity |
| QVQLVESGGGLVQAGGSLRLSCAASGFIFLYYAMGWYRQAPGKERELVAAISSSGGSTYYADSVKGRFTISRDNAKNTVYLQMNSLKPEDTAVYYCAARRKGKARVPQYDYWGQGTQVTVSS | high polyreactivity |
| QVQLVESGGGLVQAGGSLRLSCAASGRIFTYYAMGWYRQAPGKERELVASITGSGGSTDYADSVKGRFTISRDNAKNTVYLQMNSLKPEDTAVYYCAADHSGVSRYDYWGQGTQVTVSS | low polyreactivity |
| QVQLVESGGGLVQAGGSLRLSCAASGSTFNFYAMGWYRQAPGKEREFVAAITSSGDSTYYADSVKGRFTISRDHAKTTVYLQMNSLKPEDTAVYYCAARLRWRYSYDYWGQGTQVTVSS | high polyreactivity |
| QVQLVESGGGLVQAGGSLRLSCAASGSTFSSYAMGWYRQAPGKERELVAATYYADSVKGRFTISRDNAKNTVYLQMNSLKPEDTAVYYCNADNAYQGGKEYDYWGQGTQVTVSS | low polyreactivity |
| QVQLVESGGGLVQAGGSLRLSRAASGRTFYGYAMGWYRQAPGKESELVARIRSGGSTNYADSVKGRFTISRDNAKNTVYLQMNSLIPEDTAVYYCAARPGAAGYKYYYWGQGTQVTVSS | high polyreactivity |
| QVQLVESGGGLVQAGGSLRISCAASGITFTGYAMGWYRQAPGKEKELVAAIRGGGNTYYADSVKGRFTISRDNAKNTVYLQMNSLKPEDTAVYYCATSYASYTYWYDYWGQGTQVTVSS | low polyreactivity |
| QVQLVESGGGLVQAGGSLRLSCAASGFIFTKYAMGWYRQAPGKERELVAVITSRGTRTYYADSVKGRFTISRDNAKNTVYLQMNSLKPEDTAVYYCAADYQGPYDYWGQGTQVTVSS | high polyreactivity |
| QVQLVESGGGLVQAGGILRLSCAASGFIFYFYAMGWYRQAPGKERELVAAISWSGGSTYYADSVKGRFTISRDNAKINVYLQMNSLKAEDTAVYFCAADLYHKYDYWGQGTQVTVSS | low polyreactivity |
| QVQLVESGGGLVQAGGSLRLSCAPSGITFRHYALGGYRQAPGKERELVAAITSRGGSTYYADSVKGRFTISRDNAKNTVYLQMNSLKPEDTAVYYCNKRLYYQRWPAAAREYWGQGTQVTVSS | high polyreactivity |
| QVQLVESVVGLVQAGGSLRLSCASSGSIFYYYTMGWYRHAPGKERELVAAITRGGSTNYADSVKGRFTISRDNAKNTGYLQMNSLKPEDTAVYYCAVAWYRGWYRYDYWGQGTQVTVSS | high polyreactivity |
| QVHLVESGRGLVQAGRSLRLSCAASGLTFDWYDMGCYRQAPGKERELVAAITSVGSTYYADSVKGRFTISRDNAKKTVYLQMNSLKPEDTAVYYCGVEGVIWSFWPYEYWGQGTQVTVSS | high polyreactivity |
| QDQLVESGGGLVQAGGSLRLSCAASGRIFRSYAMGWYRQAPGKERELVAAINTGGITYYADSVKGRFTISRDNAKNTVYLQMNSLKPEDTAVYYCNTYILSRMNYWGQCTQVTVSS | high polyreactivity |
| QVQLVESGGGLVQAGGSLRLSCAASGFIFRYYAMGWYRQAPGKERELVAAISGSGGSTYYADSVKGRFTISRDNAKNTVYLQMNSLKPEDTAVYYCNKGRGRVYGIYDYWGQGTQVTVSS | high polyreactivity |
| QVQIVESGGGLVQAGGSLRLSCAASGRTVGYNPMGWYRQAPGKETELVAVIRSGGSTYYADSVKGRFTISRDNAQYSVYLQLHSLIPEDSEVYYCAATGLYNVTSPYSYKYDYWGQCTQVTVSS | low polyreactivity |
| QVQLVESGGGLVQAGGSLRLSCAASGSTFVYNDMGWYRQAPGKEREFVAAITYSGSTYYADSVNGRFTISRDNAKNTVYLQMNSLKPEDTAVYYCNADPRRPVTSYDYWGQGTQVTVSS | low polyreactivity |
| QVQLVESGGGLVQAGGSLRLSCAASGSIFYVYAMGWYRQAPGKERELVAAITNYADSVKGRFTISRDNAKNTVYLQMNSLKPEDTAVYYCAADWWRVEMDYWGQGTEVTVSS | low polyreactivity |
| QVQLVESGGRLVQAGGSIRLSCAASGSIFVQYAMGWYRPAPGKERELVAAIDFSDTSTYYADSVKGLFTISRDNAKITVYLQMNSLKPEDTAVYYCAAEEDSPSRSAIAVEEYLGQGTQVTVSS | low polyreactivity |
| QVQFVESGGGLVQAGGSLRLSCAASGFTFVWYDMGGYRQAPGKERELVAAISSGGSTYYADSVKGRFTISRDNAKNTVYLQMNSLKPEDTAVYYCAVYTGYYNYIYQYDYWGQGTQVTVSS | low polyreactivity |
| QVQLVESGGGLVQAGGSLRLSCAASGFISGGNAMGWYRQAPGKEREFVAAIDNTGSTYYADSVKGRFTISRDNAKNTVYLQMNSLKPEDTAVYYCNAEVSEDYVDNDYWGQGTQVTVSS | low polyreactivity |
| QVQLVESGGGLVQAGGSLRLSCAASGSIFGAYAMGWYRQAPGKEREFVAAISSRGGNTYYADSVKGRFTISRDNAKNTVYLQMNSLKPEDTAVYYAVFRYHWKYDYWGQGTQVTVSS | high polyreactivity |
